Measured values published in paper doi:10.1101/2020.08.06.225375 (bioRxiv, 2020).

B1: M. smegmatis ATP synthase subunit γ (natural protein)
chain: MAATLRELRGRIRSAGSIKKITKAQELIATSRIAKAQARVEAARPYAAEITNMLTELAGASALDHPLLVERKQPKRAGVLVVSSDRGLCGAYNANVLRRAEELFSLLRDEGKDPVLYVVGRKALGYFSFRQRTVVESWTGFSERPTYENAREIADTLVNAFMAGADDEGDDAGADGILGVDELHIVFTEFRSMLSQTAVARRAAPMEVEYVGEVETGPRTLYSFEPDPETLFDALLPRYIATRVYAALLEAAASESASRRRAMKSATDNADDLIKALTLAANRERQAQITQEISEIVGGANALAGSK
B2: M. smegmatis ATP synthase subunit b-δ (b-δ fusion protein) (natural protein)
chain: MSIFIGQLIGFAVIAFIIVKWVVPPVRTLMRNQQEAVRAALAESAEAAKKLADADAMHAKALADAKAESEKVTEEAKQDSERIAAQLSEQAGSEAERIKAQGAQQIQLMRQQLIRQLRTGLGAEAVNKAAEIVRAHVADPQAQSATVDRFLSELEQMAPSSVVIDTAATSRLRAASRQSLAALVEKFDSVAGGLDADGLTNLADELASVAKLLLSETALNKHLAEPTDDSAPKVRLLERLLSDKVSATTLDLLRTAVSNRWSTESNLIDAVEHTARLALLKRAEIAGEVDEVEEQLFRFGRVLDAEPRLSALLSDYTTPAEGRVALLDKALTGRPGVNQTAAALLSQTVGLLRGERADEAVIDLAELAVSRRGEVVAHVSAAAELSDAQRTRLTEVLSRIYGRPVSVQLHVDPELLGGLSITVGDEVIDGSIASRLAAAQTGLPD
B3: M. smegmatis ATP synthase subunit β with C-terminal 3×FLAG tag (natural protein)
chain: MTATAEKTAGRVVRITGPVVDVEFPRGSVPELFNALHAEITFGALAKTLTLEVAQHLGDSLVRCISMQPTDGLVRGVEVTDTGASISVPVGDGVKGHVFNALGDCLDDPGYGKDFEHWSIHRKPPAFSDLEPRTEMLETGLKVVDLLTPYVRGGKIALFGGAGVGKTVLIQEMINRIARNFGGTSVFAGVGERTREGNDLWVELADANVLKDTALVFGQMDEPPGTRMRVALSALTMAEFFRDEQGQDVLLFIDNIFRFTQAGSEVSTLLGRMPSAVGYQPTLADEMGELQERITSTRGRSITSMQAVYVPADDYTDPAPATTFAHLDATTELSRAVFSKGIFPAVDPLASSSTILDPAIVGDEHYRVAQEVIRILQRYKDLQDIIAILGIDELSEEDKQLVNRARRIERFLSQNMMAAEQFTGQPGSTVPLKETIEAFDKLTKGEFDHLPEQAFFLIGGLDDLAKKAESLGAKL
B4: M. smegmatis ATP synthase subunit c (natural protein)
chain: MDLDPNAIITAGALIGGGLIMGGGAIGAGIGDGIAGNALISGIARQPEAQGRLFTPFFITVGLVEAAYFINLAFMALFVFATPGLQ
B5: M. smegmatis ATP synthase subunit ε (natural protein)
chain: MADLNVEIVAVERELWSGPATFVFTRTTAGEIGILPRHIPLVAQLVDDAMVRVEREGEDDLRIAVDGGFLSVTEETVRILVENAQFESEIDADAAKEDAASDDERTAAWGRARLRALGQID
B6: M. smegmatis ATP synthase subunit b′ (natural protein)
chain: MGEFSATILAASQAAEEGGGGSNFLIPNGTFFAVLIIFLIVLGVISKWVVPPISKVLAEREAMLAKTAADNRKSAEQVAAAQADYEKEMAEARAQASALRDEARAAGRSVVDEKRAQASGEVAQTLTQADQQLSAQGDQVRSGLESSVDGLSAKLASRILGVDVNSGGTQ
B7: M. smegmatis ATP synthase subunit a (natural protein)
chain: MLAAEEGGAAIHVGHHTLVFELFGMTFNGDTILATAVTAVIVIALAFYLRAKVTSTGVPSGVQLFWEALTIQMRQQIEGSIGMKIAPFVLPLSVTIFVFILISNWLAVLPLQYGGADGAAAELYKAPASDINFVLALALFVFVCYHAAGIWRRGIVGHPIKVVKGHVAFLAPINIVEELAKPISLALRLFGNIFAGGILVALIAMFPWYIQWFPNAVWKTFDLFVGLIQAFIFSLLTILYFSQSMELDHEDH

Columns and labels:
Experiment in all cases: cryo-EM structure
[1] = biological target: M. smegmatis ATP synthase subunit α (M. smegmatis, UniProt A0R202 1-548)
Sequence of M. smegmatis ATP synthase subunit α (A0R202 whole entry): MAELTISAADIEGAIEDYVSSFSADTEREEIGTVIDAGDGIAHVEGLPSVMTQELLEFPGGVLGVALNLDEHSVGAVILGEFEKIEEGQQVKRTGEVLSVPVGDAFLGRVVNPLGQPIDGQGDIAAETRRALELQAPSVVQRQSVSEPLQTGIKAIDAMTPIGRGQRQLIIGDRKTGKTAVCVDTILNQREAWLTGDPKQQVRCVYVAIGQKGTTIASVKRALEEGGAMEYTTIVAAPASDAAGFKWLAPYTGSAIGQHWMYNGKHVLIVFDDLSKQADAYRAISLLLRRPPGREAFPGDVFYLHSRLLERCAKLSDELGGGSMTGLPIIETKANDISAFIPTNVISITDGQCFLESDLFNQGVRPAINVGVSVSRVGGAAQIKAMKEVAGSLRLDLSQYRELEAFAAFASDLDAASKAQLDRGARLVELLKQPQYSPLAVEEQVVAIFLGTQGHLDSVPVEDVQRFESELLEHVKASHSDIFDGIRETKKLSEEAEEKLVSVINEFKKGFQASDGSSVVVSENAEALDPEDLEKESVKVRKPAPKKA

[2] = biological target: B3
[3] = biological target: B7
[4] = biological target: the molecule itself
[5] = biological target: B2

Row | Binder | binding result [1] | binding result [2] | binding result [3] | stoichiometry N [4] | binding result [5]
1 | B1 | binds | binds | – | – | –
2 | B2 | binds | binds | – | – | –
3 | B3 | binds | – | – | – | –
4 | B4 | – | binds | binds | 9 | –
5 | B5 | – | binds | – | – | –
6 | B6 | – | binds | binds | – | –
7 | B7 | – | binds | – | – | binds
